Experiments:
[1] = biological target: RSV A fusion glycoprotein (F), virus of the neutralisation assays of Tables 54 and 57 (RSV A); assay: cell-based or functional assay
[2] = biological target: RSV-B B18537/62 F protein (RSV B, strain B18537/62, UniProt P13843 26-574); assay: cell-based or functional assay
[3] = biological target: T1, RSV-B B9320 F protein (RSV B, strain B9320); assay: cell-based or functional assay
[4] = biological target: RSV-long strain fusion glycoprotein (F) (RSV, long strain, UniProt P12568 26-574); assay: cell-based or functional assay
[5] = biological target: T2, RSV F B, B Ref (RSV B); assay: FACS, % binding to RSV F B variants
T2 construct: whole, on cells

[6] = biological target: T3, RSV F B K68N-N201S (RSV B); assay: FACS, % binding to RSV F B variants
T3 construct: whole, on cells

[7] = biological target: T4, RSV F B K68N-N208S (RSV B); assay: FACS, % binding to RSV F B variants
T4 construct: whole, on cells

[8] = biological target: T5, RSV F B N201S (RSV B); assay: FACS, % binding to RSV F B variants
T5 construct: whole, on cells

[9] = biological target: T6, RSV F B N208D (RSV B); assay: FACS, % binding to RSV F B variants
T6 construct: whole, on cells

[10] = biological target: T7, RSV F B N208S (RSV B); assay: FACS, % binding to RSV F B variants
T7 construct: whole, on cells; also called mutant N208S

[11] = biological target: T8, RSV F B S443P (RSV B); assay: FACS, % binding to RSV F B variants
T8 construct: whole, on cells; also called mutant S443P

[12] = biological target: T9, MPV F D280N mutant expressed on Expi293F transfected cells (metapneumovirus (MPV), strain ); assay: FACS on Expi293F cells transfected with MPV-F D280N; mouse serum taken 2 h after injection
T9 construct: whole, on cells; also called MPV D280N F; D280N F

[13] = biological target: T9, MPV F D280N mutant expressed on …; assay: FACS on Expi293F cells transfected with MPV-F D280N; mouse serum taken 56 d after injection
[14] = biological target: T10, RSV F expressed on transfected Expi293F cells (respiratory syncytial virus (RSV)); assay: flow cytometry, transfected Expi293F cells, fixed and permeabilised
[15] = biological target: T11, biot-RSV-F wt (respiratory syncytial virus (RSV)); assay: BLI, SA sensor loaded with biot-RSV-F wt, mAb 5 ug/ml, 4 min association, 6 min dissociation
[16] = biological target: T12, RSV fusion glycoprotein (RSV-F), pre-fusion conformation, recombinant protein loaded on sensors (respiratory syncytial virus (RSV), …); assay: method not said in the sentence; RSV-A as printed
T12 construct: also called RSV-F wt; RSV-F protein

[17] = biological target: RSV A Randall fusion glycoprotein (F) (RSV A, strain Randall); assay: cell-based or functional assay
[18] = biological target: T1, RSV-B B9320 F protein; assay: cell-based or functional assay; remark: listed apart in the source
[19] = biological target: fusion glycoprotein (F) of RSV A/A2/61 (respiratory syncytial virus A/A2/61, UniProt P03420 26-574); assay: cell-based or functional assay
[20] = biological target: fusion glycoprotein (F) of RSV B/9727 (respiratory syncytial virus B/9727); assay: cell-based or functional assay
[21] = biological target: fusion glycoprotein (F) of MPV A1/6621 (metapneumovirus A1/6621); assay: cell-based or functional assay
[22] = biological target: T13, DS-Cav1 RSV F (respiratory syncytial virus); assay: ELISA on DS-Cav1 RSV F
T13 construct: also called DC-VCav1

[23] = biological target: fusion glycoprotein (F) of the RSV used in the GFP-based neutralization assay of Table 23 (respiratory syncytial virus); assay: cell-based or functional assay
[24] = biological target: fusion glycoprotein (F) of the MPV (non-D280N) used in the GFP-based neutralization assay of Table 23 (metapneumovirus); assay: cell-based or functional assay
[25] = biological target: T14, RSV fusion glycoprotein (RSV-F) (respiratory syncytial virus); assay: biolayer interferometry (BLI), rIgG1 with M428L/N434S
T14 construct: also called RSV-F wt

[26] = biological target: T15, MPV fusion glycoprotein without the D280N mutation (MPV-F D280) (metapneumovirus); assay: as above
T15 construct: also called MPV F Non-D280N; MPV-F wt

[27] = biological target: T16, MPV fusion glycoprotein with the D280N mutation (MPV-F N280) (metapneumovirus); assay: as above
T16 construct: also called MPV F D280N; MPV-F D280N

[28] = biological target: T14, RSV fusion glycoprotein (RSV-F); assay: SPR; F protein loaded on streptavidin sensors, mAb in solution
Method: (§1) Binding affinity of mAbs for RSV-F protein, MPV-F D280 protein, and MPV-F N280 F variant protein was assessed using surface plasmon resonance (SPR).

[29] = biological target: T15, MPV fusion glycoprotein without the …; assay: as above
Method: as §1

[30] = biological target: T16, MPV fusion glycoprotein with the D280N …; assay: as above
Method: as §1

[31] = biological target: DS-Cav1 RSV F (respiratory syncytial virus (RSV); …, UniProt P13843 26-513); assay: ELISA on RSV-F Ds-Cav1, 1 ug/ml
[32] = biological target: T12, RSV fusion glycoprotein (RSV-F), …; assay: ELISA-type titration, OD 405 nm, on Pre-F
[33] = biological target: post-fusion RSV F protein (respiratory syncytial virus (RSV), …); assay: ELISA-type titration, OD 405 nm, on Post-F
[34] = biological target: T12, RSV fusion glycoprotein (RSV-F), …; assay: same manner as Experiment 1 (Example 6, Experiment 4)
[35] = biological target: T11, biot-RSV-F wt; assay: BLI (Octet), biotinylated F on SA sensors, mAb 5 µg/ml
[36] = biological target: T10, RSV F expressed on transfected Expi293F …; assay: flow cytometry, transfected Expi293F cells, fixed and permeabilised; remark: listed apart in the source
[37] = biological target: T11, biot-RSV-F wt; assay: BLI, SA sensor loaded with biot-RSV-F wt, mAb 5 ug/ml, 4 min association, 6 min dissociation; remark: listed apart in the source

B1: MPK190-v1.3-rIgG1m17,1-LS (antibody, V domains shown)
VH: QVQLVESGGGLVKPGGSLTLSCAASGFSISGYGMNWVRQAPGRGLEWVASISASSTYIYYADSMKGRFTISRDNGKTSLYLQMKSLRAEDTAVYYCARAPIEPPYFDLWGRGTLVTVSS
VL: QSVLTQPPSVSGAPGQRVTISCTGSSSNIGAGYDVHWYQHLPGKAPKVLIYGNTNRPSVVPDRFSGSNSGASASLAISGLQAEDEADYFCQSYDRRLSGPIFGGGTKLTVLG
IC50, neutralization of RSVA [1]: 0.0153 µg/mL | EC50, virus neutralization (Fab testing) [2]: 24.7 pM | EC50, virus neutralization (Fab testing) [3]: 17 pM | EC50, virus neutralization (Fab testing) [4]: 105 pM | % binding [5]: 72.1% | % binding [6]: 63.3% | % binding [7]: 61.5% | % binding [8]: 63.1% | % binding [9]: 60.5% | % binding [10]: 63.4% | % binding [11]: 66.7%

B2: MPK190 (antibody, V domains shown)
VH: EVQLVESGGGLVKPGGSLTLSCAASGFSISGYGMNWVRQAPGRGLEWVASISASSTYIYYADSMKGRFTISRDNGKTSLYLQMKSLRAEDTAVYYCARAPIEPPYFDLWGRGTLVTVSS
VL: QSVLTQPPSVSGAPGQRVTISCTGSNSNIGAGYDVHWYQHLPGKAPKVLIYGNNNRPSVVPDRFSGSNSGASASLAISGLQAEDEADYFCQSYDRRLSGPIFGGGTKLTVL
notes: Tested as MPK190-rIgG1-LS (IgG1 with M428L/N434S); also called MPK190-rIgG1-LS; MPK190-rIgG1-LS(4B6)
EC50 [12]: 0.062 µg/mL | EC50 [13]: 0.084 µg/mL

B3: MPK51-v1.1-rIgG1m17,1-LS (antibody, V domains shown)
VH: QVQLVESGGGLVKPGGSLRLSCAASGFRISGYYMIWVRQAPGKGLEWISAISGMSSYITYADSVKGRFTVSRDNGQNSLFLEMKSLRGEDTAVYFCAREEVPSPGPFDLWGQGTPVTVSS
VL: QSVVTQPPSVSGAPGQRVTIFCTGSTSNIGAGYDVHWYQHLPGTAPRLLIFRNNNRPSGVPDRFSGFKSGTSASLAIIGLQVEDEADYYCQSYDRNMDGWAFGGGTKLTVL
notes: called the parental mAb (v1.1)
Binding (FACS) relative to parental mAb MPK51-v1.1 [14]: 1 | Kd [15]: < 1 pM

B4: MPK65-v2 (antibody, human IgG1, V domains shown)
VH: QVPLVQSGAEVKKPGESLKISCKGSGYSFINYWIGWVRQMPGKGLEWMGVIYPFDSDTKYSPSFQGHVTISADKSSNTAYVQWSSLKASDTAMYYCARFTFGIAVVTDDVSGEGQAFEIWGQGTMVTVSS
VL: EIVMMQSPATLSVSPGERATLSCRASQSVAGNLAWYQQRPGQAPRLLIYGASTRATGVPARFSGSGSETEFTLTISSLQSEDFAVYYCHQYSNWPQAFGQGTRLDIK
notes: also called MPK65-v2-rIgG1-LS
Kd [16]: < 100 pM

B5: MPH12 (antibody, IgG1, V domains shown)
VH: QVQLVESGGGLVKPGGSLRLSCVASGFTFSGFYMKWIRQAPGKGLEWVSSISASGSYTNYADSVEGRFTVSRDNAKNSLFLLMSSLRAEDTAVYYCARGDSYCGASACHGEFFHKWGQGTLVTVSS
VL: QSVLTQPPSVSGAPGQRVTISCTGSDSNIGADFDVHWYQQLPGTAPKLLIYGNINRPSGVPDRFSGSRSGTSAFLAITRLQAEDEADYYCQSYDRSLHYVFGAGTKVTVL
notes: also called WT; parental MPH12-wt
RSV IC50 (ng/ml), neutralization of A/Randall [17]: 23.1 ng/mL | RSV IC50 (ng/ml), neutralization of B/9320 [18]: 3.29 ng/mL | RSV IC50 (ng/ml), neutralization of A/A2 [19]: 142 ng/mL | RSV IC50 (ng/ml), neutralization of B/9727 [20]: 19.9 ng/mL | MPV IC50 (nM), neutralization of MPV A1/6621 [21]: 0.0671 nM | EC50 [22]: 0.0326 µg/mL | RSV IC 50 (ng/mL), GFP-based in vitro neutralization [23]: 47.7 ng/mL | MPV IC50 (ng/mL), GFP-based in vitro neutralization [24]: 24.6 ng/mL | Kd [25]: 420 pM | Kd [26]: 26 pM | Kd [27]: 1100 pM | Kd [28]: 750 pM | Kd [29]: 1 pM | Kd [30]: 1700 pM

B6: MPH12 (antibody, V domains shown)
VH: QVQLVESGGGLVKPGGSLRLSCVASGFTFSGFYMKWIRQAPGKGLEWVSSISASGSYTNYADSVEGRFTVSRDNAKNSLFLLMSSLRAEDTAVYYCARGDSYCGASACHGEFFHKWGQGTLVTVSS
VL: QSVLTQPPSVSGAPGQRVTISCTGSDSNIGADFDVHWYQQLPGTAPKLLIYGNINRPSGVPDRFSGSRSGTSAFLAITRLQAEDEADYYCQSYDRSLHYVFGAGTKVTVL
notes: also called MPH12-rIgG1; MPH12-rIgG1-LS
EC50 (read off the curve) [31]: ~0.002 µg/mL | EC50 (read off the curve) [32]: ~0.01 µg/mL | EC50 (read off the curve) [33]: ~0.03 µg/mL

B7: MPK36-v3 (antibody, V domains shown)
VH: EVQLVESGGGLVKPGGSLRLSCAASFTISGYYMIWIRQAPGKGLEWISYISGSSTYTNYADSVKGRFTISRDNGQNTLYLHMTSLRADDTALYYCATEQTPSPGPFDLWGQGTLVTVSS
VL: QTVVTQPPSVSGAPGQRVTISCSGTSSNIGAGYDVHWYQQFPGTSPKLLIYRNFNRPSGVPDRFSGSKSGSSASLAIAGLQAEDEADYYCQSYDKSLDGWVFGGGTKVTVL
notes: also called MPK36-v3-rIgG1-LS
Kd [34]: ~1 pM

B8: MPK77-v1.1-rIgG1m17,1-LS (antibody, V domains shown)
VH: QVQLVESGGGLVKPGGSLRLSCAASKSFSGYYMIWIRQAPGRGLEWIADISGSSTYTDYADSVKGRFTISRDNTRNTLYLQMNSLRPEDTAVYYCATEQVPSPGPFDLWGPGTLVTVSS
VL: QSVLTQPPSVSGAPGQRVIISCTGSSSNIGAGYDVHWYQQFPGTSPKLLIYRNTNRPSGVPDRFSGFKSGASAALAITGLQAEDEADYYCQSYDRSLSGWAFGGGTKVTVL
notes: called the parental mAb (v1.1); also called MPK77-v1.1-rIgG1-LS
Kd [35]: < 1 pM | Binding (FACS) relative to parental mAb MPK77-v1.1 [36]: 1 | Kd [37]: < 1 pM

Source: patent US20260028391A1 (HUMABS BIOMED, published 2026)
